Test results: patent US20210206881A1 (Amgen, published 2021)

T1: human B7RP1-Fc fusion protein (human, UniProt O75144 19-256, limits assumed)
T1 sequence (looked up): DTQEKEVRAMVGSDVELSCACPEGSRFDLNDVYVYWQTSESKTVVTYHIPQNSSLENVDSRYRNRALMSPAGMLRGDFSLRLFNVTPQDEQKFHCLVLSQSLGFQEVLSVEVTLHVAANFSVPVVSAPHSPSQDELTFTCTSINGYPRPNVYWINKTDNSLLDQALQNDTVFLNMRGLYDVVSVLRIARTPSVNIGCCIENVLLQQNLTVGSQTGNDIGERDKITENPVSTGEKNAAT

T2: human B7-related protein 1 (B7RP1) (human, UniProt O75144 19-256, limits assumed)
T2 construct: also called human B7RP1; ICOSLG
T2 sequence (looked up): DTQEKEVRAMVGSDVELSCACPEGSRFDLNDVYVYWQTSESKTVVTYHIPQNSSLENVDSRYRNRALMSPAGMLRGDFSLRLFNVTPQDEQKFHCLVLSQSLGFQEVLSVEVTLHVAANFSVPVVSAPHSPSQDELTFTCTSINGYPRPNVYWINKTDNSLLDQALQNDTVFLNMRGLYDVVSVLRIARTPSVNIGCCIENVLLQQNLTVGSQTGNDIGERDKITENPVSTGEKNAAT

T3: cynomolgus monkey B7RP1 (cynomolgus monkey, UniProt A0A2K5TK64 19-256)
T3 sequence: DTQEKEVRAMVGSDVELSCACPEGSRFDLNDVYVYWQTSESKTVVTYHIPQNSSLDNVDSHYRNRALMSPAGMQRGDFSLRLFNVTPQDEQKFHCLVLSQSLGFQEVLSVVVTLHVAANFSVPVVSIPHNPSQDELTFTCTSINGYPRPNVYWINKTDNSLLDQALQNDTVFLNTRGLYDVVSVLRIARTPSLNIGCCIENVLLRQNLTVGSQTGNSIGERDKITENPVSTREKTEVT


Key:
[1] = molecular target: T4, human B-cell activating factor (BAFF) (human, UniProt Q9Y275 134-285); experiment: cell-based or functional assay
[2] = molecular target: BAFF used in the cynomolgus monkey B cell proliferation assay; experiment: cell-based or functional assay
[3] = molecular target: B7RP1 used in the cynomolgus monkey T cell proliferation assay; experiment: cell-based or functional assay
[4] = molecular target: T1, human B7RP1-Fc fusion protein; experiment: cell-based or functional assay
[5] = molecular target: T4, human B-cell activating factor (BAFF); experiment: KinExA (Kinetic Exclusion Assay)
Description: (§1) The binding affinities of the heterodimeric bispecific antibodies P74293 and P74294 to BAFF and B7RP1 were measured by Kinetic Exclusion Assay (KinExA®; Sapidyne Instruments, Boise, Id.). […] In addition, both of these bispecifics have similar binding affinities to cynomolgus monkey BAFF compared to human BAFF and to cynomolgus monkey B7RP1 compared to human B7RP1.

cynomolgus monkey BAFF = cynomolgus monkey BAFF (cynomolgus monkey, UniProt A0A2K5V2X4 134-285); experiment: KinExA (Kinetic Exclusion Assay)
Description: as §1

[6] = molecular target: T2, human B7-related protein 1 (B7RP1); experiment: KinExA (Kinetic Exclusion Assay)
Description: as §1

cynomolgus monkey B7RP1 = molecular target: T3, cynomolgus monkey B7RP1; experiment: KinExA (Kinetic Exclusion Assay)
Description: as §1

Row | IC50 (nM) for inhibition of BAFF-mediated human B cell proliferation [1] [nM] | IC50 (nM) for inhibition of BAFF-mediated cynomolgus monkey B cell proliferation [2] [nM] | IC50 (nM) for inhibition of B7RP1-mediated cynomolgus monkey T cell proliferation [3] [nM] | IC50 (nM) for inhibition of B7RP1-mediated human T cell proliferation [4] [nM] | Kd [5] [pM] | Kd (cynomolgus monkey BAFF) [pM] | Kd [6] [pM] | Kd (cynomolgus monkey B7RP1) [pM] | Binder
1 | 0.86 | 1.6 | 0.29 | 1.36 | 29 | 22.3 | 38 | 49.4 | P74293 BAFF/B7RP1 bispecific molecule (bispecific antibody, human IgG2, kappa, also called anti-BAFF/B7RP1 bispecific P74293) heavy: EVQLVESGGGLVQPGGSLRLSCAASGFTFSSYWMSWVRQAPGKGLEWVAYIKQDGNEKYYVDSVKGRFTISRDNAKNSLYLQMNSLRAEDTAVYYCAREGILWFGDLPTFWGQGTLVTVSSASTKGPSVFPLAPCSRSTSESTAALGCLVKDYFPEPVTVSWNSGALTSGVHTFPAVLQSSGLYSLSSVVTVPSSNFGTQTYTCNVDHKPSNTKVDKTVERKCCVECPPCPAPPVAGPSVFLFPPKPKDTLMISRTPEVTCVVVDVSHEDPEVQFNWYVDGVEVHNAKTKPREEQFNSTFRVVSVLTVVHQDWLNGKEYKCKVSNKGLPAPIEKTISKTKGQPREPQVYTLPPSREEMTKNQVSLTCLVKGFYPSDIAVEWESNGQPENNYKTTPPMLDSDGSFFLYSKLTVDKSRWQQGNVFSCSVMHEALHNHYTQKSLSLSPGKGGGGGLPGCKWDLLIKQWVCDPLGSGSATGGSGSVASSGSGSATHLLPGCKWDLLIKQWVCDPL light: not shown
2 | 0.96 | 1.8 |  | 0.98 | 37 | 17.4 | 41 | 45.2 | P74294 BAFF/B7RP1 bispecific molecule (bispecific antibody, human IgG2, kappa, variant of P71619 with a modified linker) heavy: EVQLVESGGGLVQPGGSLRLSCAASGFTFSSYWMSWVRQAPGKGLEWVAYIKQDGNEKYYVDSVKGRFTISRDNAKNSLYLQMNSLRAEDTAVYYCAREGILWFGDLPTFWGQGTLVTVSSASTKGPSVFPLAPCSRSTSESTAALGCLVKDYFPEPVTVSWNSGALTSGVHTFPAVLQSSGLYSLSSVVTVPSSNFGTQTYTCNVDHKPSNTKVDKTVERKCCVECPPCPAPPVAGPSVFLFPPKPKDTLMISRTPEVTCVVVDVSHEDPEVQFNWYVDGVEVHNAKTKPREEQFNSTFRVVSVLTVVHQDWLNGKEYKCKVSNKGLPAPIEKTISKTKGQPREPQVYTLPPSREEMTKNQVSLTCLVKGFYPSDIAVEWESNGQPENNYKTTPPMLDSDGSFFLYSKLTVDKSRWQQGNVFSCSVMHEALHNHYTQKSLSLSPGKGGGGGLPGCKWDLLIKQWVCDPLGSGSATGGSGSSASSGSGSATHLLPGCKWDLLIKQWVCDPL light: not shown
